Measurements published in the DeepSol protein solubility set.

Assay: soluble on expression in E. coli; label from the status in PepcDB or PDB records

Sequence	soluble on expression in E. coli
TAGFSLNVLTINTHKGFTAFNRRFILPELRDAVRSVSADIVCLQEVMGAHEVHPLHIENWPDTTHYEFLADTMWSDYAYGRNAVYPEGHHGNAVLSRFPIEYYENRDISVGNGEKRGLLYCRIVPPRSGITIHVICVHLGLRADQRQAQLTMLAEWVNTLPAGEPVVVAGDFNDWRQQANQPLKAQAGLEEIFTRARGRPARTFPVSFPLLRLDRIYVKNAHASRPKALALKQWRHLSDHAPLSVEIHL	not soluble
MSLKKYMGIIVDAISRRQFKGEITVENGKIIRVEEKEHDNEQYILPGLVDAHVHIESSMTVPSVFARMAVAKGTVAVVSDPHEIANVMGEEGIEFMLEDSKKSPLKVYFGVPSCVPATPFESSGAVLDINAVDRLLAKDDLHYLSEMMNFPGVILEFPDVMAKLESARKHGKVIDGHAPGLRGADLQKYIGAGISTDHECFEYEEAREKIELGMKILIREGSSARNFETLYPLIDEYPDHVMLCTDDSHPDTLIYEGHIDKLIRRGQEKGLDIYNLIRTAVFNPVEHYGLNVGLLREGDPADFIIVDNLKSFNILSTFIDGECVYENGKVLFPLEKVPAKNVFNRNKISIDDVKLVPPAGAIQEQTTEKGIKKIRVIVANDGELVTGQELIVPKIENGNLVSDPERDILKMVVLSRYSDDPVRIGFIKNIGLEKGAIASSIAHDSHNIIAVGATDEDIVETVNRLIKNKGGIAVGTAENLLDLPLEVAGLMSTLEGEEVASRYHLLNEEARKLGTSLESPFMTLAFMSLLVIPELKLGDKGLFDVTKFEFVDLFADEGHHHHHH	soluble
MGSDKIHHHHHHMTLPISVFIITKNEEKHIAKTLASVKDMDEVILVDSGSTDKTLSIAQQFGATIFSHEWQGYAKQKQYAMSLCRNEWVLNLDGDEAINPQLIAAFKEIIEQDKADSVRFWRNDIFIGKPLSSLSKKPNNHRLYKKSKSFFDDSRLAHESATVDGKEIFINQVFDHYGYDSIAAITNKNNTYSTLKADEKFVKGKSFSHLKLFLIFPLVFIKEYLLQRKLFSGRRGFILAVMEAYYAFLKEAKLFENHQNKPN	not soluble
MAHHHHHHMLGACYPIPSGISLSLSRSRAYDVVYHYTRAAHIRLRLHGSGHSGEHMAAAEQRTCRPHLLWRLDGRPHADSIGHGLADDTRLCARVDLRRMLVACPRWGQSRAFIPQSRRLRALPRDGLRACLRGAVLPSGLATVTMVADDTT	not soluble
MANFMSKEAPFWKVKKLEEMSLSEWESLCDGCGLCCLHKVEDDDTGDIYATSVACRLLDSETCRCRNYVHRKSIVPDCIFLNLATIKTVRWLPENCAYRLIYEGKDLYWWHPLVSGNYQTVHQTQFSARGQIEIYEDELSSEEDYLQYITGILCEGR	not soluble
VEREVLMNGTQAVAHAAMYADVDVVAAYPIRPYTEVMDTISKLIADGELDAEFIVAEGEHGQFETVKHASLAGARTLVGSSGVGWLYAMEAIVVTATDRAPVVAIIGNRALDDPGAYGVEHNDALMVRDVGWLLVWVDTAQEAFDTALLAYRIAEDQRVLLPLGISMDGGFLTHSEQIVRLPPRELVKNFLPPYNRGKYLVHPDNPITVAPQVNEDWVMEIRRQHEEAMERARSVIVEAYEEFKKVFGRYPGSTSDLQMPE	not soluble
MVGQVIRKRGAYPEYTVEDVLAVIFLLKEPLGRKQISERLELGEGSVRTLLRKLSHLDIIRSKQRGHFLTLKGKEIRDKLLSMFSEPIGVSVDGYPGIAIVVKNPPEFKSIELRDEAIKFDAKGAMILTVKDNEIVFPEDFRPLKEMYPEVAKKIVDYEDGDAVIITWAETPAKALKSAIHVAYILKKEEITPEILEVVK	soluble
MSLIHAFIKKGCFQDSVSLMIISRKLSESENVDDVSVMMGTPANKALLDTTGFWHDDFNNATPNDICVAIRSEAADAGIAQAIMQQLEEALKQLAQGSGSSQALTQVRRWDSACQKLPDANLALISVAGEYAAELANQALDRNLNVMMFSDNVTLEDEIQLKTRAREKGLLVMGPDCGTSMIAGTPLAFANVMPEGNIGVIGASGTGIQELCSQIALAGEGITHAIGLGGRDLSREVGGISALTALEMLSADEKSEVLAFVSKPPAEAVRLKIVNAMKATGKPTVALFLGYTPAVARDENVWFASSLDEAARLACLLSRVTARRNAIAPVSSGFICGLYTGGTLAAEAAGLLAGHLGVEADDTHQHGMMLDADSHQIIDLGDDFYTVGRPHPMIDPTLRNQLIADLGAKPQVRVLLLDVVIGFGATADPAASLVSAWQKACAARLDNQPLYAIATVTGTERDPQCRSQQIATLEDAGIAVVSSLPEATLLAAALIHPLSPAAQQHTPSLLENVAVINIGLRSFALELQSASKPVVHYQWSPVAGGNKKLARLLERLQEGHHHHHH	soluble
GSGMRFYVKDHRNKAMINLHIQKDNPKIVHAFDMEDLGDKAVYCRCWRSKKFPFCDGAHTKHNEETGDNVGPLIIKKKET	soluble
MGSDKIHHHHHHMRIAIVTHVVRHNDGQGRVNYEIARAALAENYEVTLVASHVAPELLADPRVRWVPVKVGRFWPSNLVKQQVFALKSAWWLRAHRGEYDVLHVNGFISWISADVNTAHFVHGGWFKSPYYPFGLTKGMWSAYQYVYTRVNTALERWAYRRSRAITAVSQKVADEIAGLGIDSRKISVIYNGVDGSAFAGAQPDRAAFKLPDDAFLLLFVGDLRTPRKNLGTVLKALTKLPANVHLAVAGYLPGSPYPDEARALGIDSRVHFLGLVKNMPTLMSSVDAYVFPSRYEAMSLSLLEAMAAGLPVVTARTAGGAEIITRECGIVLEDPDDPAALAQAIGSLAASRDTCRAMGDAARELMTRFGWAHMGAQYVALYRRIGQPTQPSAFERVEHAVTQEQS	not soluble
MIEFVYPHTQLVAGVDEVGRGPLVGAVVTAAVILDPARPIAGLNDSKKLSEKRRLALYEEIKEKALSWSLGRAEPHEIDELNILHATMLAMQRAVAGLHIAPEYVLIDGNRCPKLPMPAMAVVKGDSRVPEISAASILAKVTRDAEMAALDIVFPQYGFAQHKGYPTAFHLEKLAEHGATEHHRRSFGPVKRALGLAS	soluble
MTGKSVREVPMTEEILAESIALRLRRDILRGKLVPGTSIKERDNAAEMGVSRTPMREAIRILANEGLVQLRPSRSPIVTQLSLNEVVSFIEVLSALEMLAVTLACERATKIDIAHVRGAERKLATQYDRIDQVERFELDMDFHIALTRASHNQALSDTHMSYLRRLWYARFQSARNRHTKDRVLQQHAALVDAIERRDPTMAQTELSSHLENLRINVHAYFERAEREQLQLKNSA	not soluble
MAGDPMAYQQGKQGQNVEKESTRQQETKPIHVKDTTQETKDNGTRTDIAKHLVSVAEKNPDVKDATAVVLGGYAVVGIDVDDTLDRSKVETIKYSVAQALKNDRYGANAVVIADPDTVSRLREMSREISEGHPVTGILDELAAIVGRVLPEVPNDVIDNEDEPQTKQQNDQLNRKQQQEMEKEQNDQSDHHMKKNNNDLEHHHHHH	soluble
MSLDYEIFNPYEGLIFDMDGTLIDTMPVHAQAWTMVGKKFGYEFDFQIMYNFGGATVRTIAGEMMKAANMPLDRIEDVLAAKRELSYQLIPTQSKLLPTFEIVKSFHQKKPIALGSGSHRKIIDMLMDKLAIAPYFNAIVSADDVKEHKPHPETFLRCAELIQANPSRCIVFEDADLGVQAGLSAGMDVFDVRTREIISPREGHHHHHH	soluble
MSSTIPALPGPEPGPGPGPAGPVSLTERRKAETRMEIARAAARLFVGQGLRATRAEDIARAAGVAPRTFYRYFATKEEAVAPLYALGAERWVRAVREAPAELSPPEALERAVRHTLTPGAGVSAPSWEWARTLIRLAESSPALRKVWAEVCHSTERGLVQALAARMSGGDDNVAVRLAASPRLHFAAAVAGASVRVAAEHWASSSPQGARSPLEQALLNLEVLRGFAWEAGPAEEG	not soluble
MKLYNLKDHNEQVSFAQAVTQGLGKQQGLFFPHDLPEFSLTEIDEMLNQDFVSRSAKILSAFIGDEIPQQILEERVRAAFAFPAPVAQVESDVGCLELFHGPTLAFKDFGGRFMAQMLTHISGDKPVTILTATSGDTGAAVAHAFYGLENVRVVILYPRGKISPLQEKLFCTLGGNIETVAIDGDFDACQALVKQAFDDEELKTALGLNSANSINISRLLAQICYYFEAVAQLPQGARNQLVISVPSGNFGDLTAGLLAKSLGLPVKRFIAATNVNDTVPRFLHDGKWAPKATQATLSNAMDVSQPNNWPRVEELFRRKIWRLTELGYAAVDDTTTQQTMRELKAKGYISEPHAAVAYRALRDQLNPGEYGLFLGTAHPAKFKESVESILGETLALPEALAERADLPLLSHHLPADFAALRKLMMTRQ	not soluble
MGSDKIHHHHHHMATAIRGLKLQTEDYFLTDKNAVMVAERHPQPVFPLHHHDFDELVIVWRGNGLHLWNDVPYRITRGDMFYVSAHDRHSYESVHELELDNILYIRNRLTLSADWQTLLPSGELPQSQRHWCLGSEGMDTIREKVDALTQECMKSDALSLQLSEALLLQIALLAARYRHSPDSPQLADAHQLDMLMNALRASIAAPFRFEAFCEQHHFSARSLRSRFKEQTGMSVPHYLRQLRLCKAMELLRYDLQTIGDVAALCGFEDSNYFSVVFHQAFGVSPSAYRQRFLNVE	not soluble
MGWCITVVHNTKWKAPPDTHIKCNYDAGFNVQNLDSTARWIIRNHDGIAQHWGSLQLDNTSTPLEAETKALLAALQQTWIRGYLRVIMEGDCETLTNLVSGSSSHNHLANLLDDIRIWAKKFSNVQFSFVRRGGNKVAHELAKLGCNSTCFYSDSCTLPIWLHQHYCNDFG	soluble
MGSDKIHHHHHHLAKIKTKFVCQSCGTESPKWMGRCSGCGEWNTMVEEVVEEKKARRGSAFVHTTTKQLKPERLSNILSQEESRVFTGSGEFDRVLGGGIVPGSMVLVGGDPGIGKSTILLQTSARLAARGEKVLYISGEESLKQTKLRAERLGLPTQDLFVLSETDMNMIERVVDEENPAFLIIDSIQTVYIDEIQSAPGSVTQVRECTAMLMKIAKSRGIAIFIVGHVTKQGSIAGPRLLEHMVDAVLYFEGERHHTFRILRAVKNRFGSTNEIGIFEMRESGLEEVLNPSEIFLEERTSGVSGSTIVASMEGTRTVLVELQALISPTSFGNPRRMATGIDQNKVALLMAVLEKRSGLLLQTQDAYLKAAGGVKLDEPAIDLAICVAVASSFRDKPTRPTDVVIGEVGLTGEVRRVSRIEQRVAEAAKLGFTRAIIPKNNLGGWTYPPGITVIGVESVDEALRETIPF	not soluble
IRNVGITFETRPDWAREEHVDEFLRLGGTKVEIGVQSVYDFVLSRMQRGHGVAEIVRANRVLRDSAFKVGFHMMPHLPGADSELDLRGFKKLFDDQRFRPDYLKIYPTLVTEGTPLYRMWKSGEYQALSDEEAAELVADIKAVLPKWVRLQRIQRDIPAHQIFAGVR	not soluble
GNHHHHHMMLIKKIEELKNSEIKDIIDKRIQEFKSFKNKSNEEWFKELCFCILTANFTAEGGIRIQKEIGDGFLTLPREELEEKLKNLGHRFYRKRAEYIVLARRFKNIKDIVESFENEKVAREFLVRNIKGIGYKEASHFLRNVGYDDVAIIDRHILRELYENNYIDEIPKTLSRRKYLEIENILRDIGEEVNLKLSELDLYIWYLRTGKVLK	soluble
LFDLGHPLLNRIADSFVKAAGVGALQAVSREAYFTVVDGAGFDSNNVGPPSEITGNKKHRFPNLRGESSKSLDALVKNTGKESLQWGLAAGLYSGITYGMTEVRGGAHDWRNSAVAGALTGAAMAMTTSERTSHEQVVQSALTGAAISTAANLLSSVF	not soluble
